Numbering of substitutions follows the chain as printed.
B1: ybeD_yp (dsDNA)
DNA 1: ATTGGCCCCATATTGTGATTAATCTTATATTGCAAATAAGCT
DNA 2: AGCTTATTTGCAATATAAGATTAATCACAATATGGGGCCAAT
B2: lipBA_she (dsDNA)
DNA 1: CAAGGTCATAAAGTGTGATCTATCTTACATTTATGGCCAAGAG
DNA 2: CTCTTGGCCATAAATGTAAGATAGATCACACTTTATGACCTTG
B3: ybeD_st2 (dsDNA)
DNA 1: CTGTGGCGGGAGTTGTTATTTTTTTTACGTAATGCCGGAGCT
DNA 2: AGCTCCGGCATTACGTAAAAAAAATAACAACTCCCGCCACAG
B4: fadD_ec (dsDNA)
DNA 1: GTAAAGATAAAAATAAATAGTGACGCGCTTCGCAACCTTTTCGTTGGG
DNA 2: CCCAACGAAAAGGTTGCGAAGCGCGTCACTATTTATTTTTATCTTTAC
B5: lipA_ec (dsDNA)
DNA 1: ACGGAGTAATAGATGTTATCCGTAATGCATTTTGAAAAAGTA
DNA 2: TACTTTTTCAAAATGCATTACGGATAACATCTATTACTCCGT
B6: ybeD_ec (dsDNA)
DNA 1: AAACACTTGAAAGTGTAATTTCCGTCCCCATATACTAAGCAT
DNA 2: ATGCTTAGTATATGGGGACGGAAATTACACTTTCAAGTGTTT
B7: ybeD_es (dsDNA)
DNA 1: B6 DNA 1 with A1G, A17G, G24A, A38G, C40T
DNA 2: B6 DNA 2 with G3A, T5C, C19T, T26C, T42C
B8: ybeD_st1 (dsDNA)
DNA 1: B6 DNA 1 with A1G, A5G, A17G, C22T, A38T
DNA 2: B6 DNA 2 with T5A, G21A, T26C, T38C, T42C
B9: ybeD_kp (dsDNA)
DNA 1: B6 DNA 1 with A1G, A17G, G24A, A38T, G39T
DNA 2: B6 DNA 2 with C4A, T5A, C19T, T26C, T42C

Each binder was assayed against CRP_ec (cAMP receptor protein) (Escherichia coli, UniProt P0ACJ8 1-210) (assay: EMSA; cAMP (20 pmol); EMSA: 0.2 pmol DIG probe, CRP (2 pmol in Fig. 6), 20 pmol cAMP, Roche binding buffer (composition and pH not given), 20 uL (15 uL in Fig. S2), room temperature). Details: protein: recombinant; tags: His6 (pET28 construct, nickel purified); chain copies: 2; label: DIG-ddUTP 3' end (terminal transferase); blunt.

**Q.** Does B1 bind?
**A.** no binding

**Q.** Does B2 bind?
**A.** binds

**Q.** Does B3 bind?
**A.** no binding

**Q.** Does B4 bind?
**A.** binds

**Q.** Does B5 bind?
**A.** no binding

**Q.** Does B6 bind?
**A.** no binding

**Q.** Does B7 bind?
**A.** binds

**Q.** Does B8 bind?
**A.** binds

**Q.** Does B9 bind?
**A.** binds

The binders below were run against CRP_she (cAMP receptor protein) (UniProt Q8EJ49 1-211) in the same assay as above. Details: protein: recombinant; tags: N-terminal His6 (pET28a); chain copies: 2; label: DIG-ddUTP 3' end (terminal transferase); blunt.

**Q.** Does B2 bind?
**A.** binds

**Q.** Does B4 bind?
**A.** binds

Source: PMC4398509, “A new regulatory mechanism for bacterial lipoic acid synthesis”
